This note sets out measurements from US20220380484A1 (MONASH UNIVERSITY, published 2022).

Assay [1] deals with unactivatable mutant of plasminogen (recombinant plasminogen labelled with Alexa-Fluor 647) (human) (UniProt P00747). Nature of the assay: SDS-PAGE fluorescence scan of the bound fraction: 0.2 µM labelled plasminogen on Group A Streptococcus cells with 7.5 µM G05.
Assay [2] shares this target. Nature of the assay: flow cytometry: 22.2 nM Alexa-Fluor 647 plasminogen on Group A Streptococcus cells with 2.22 µM G05.
Assay [3] has as its target plasminogen (human) (UniProt P00747). Nature of the assay: SPR, multi-cycle; G05 immobilised on the chip, plasminogen injected as analyte; 1:1 Langmuir fit.
For assay [4] the target is unchanged. Nature of the assay: cell-based or functional assay.
For assay [5] the target is unchanged. The assay can be described thus: SPR (Biacore T200), antibody immobilised; FIG. 1.
The target of assay [6] is T1, plasmin (human, UniProt P00747 20-580; P00747 581-810).
T1 construct: Bought plasmin (Haematologic Technologies) is named in the activity assay; also called Plm; PLM
Nature of the assay: SPR, multi-cycle; G05 immobilised on the chip, plasmin injected as analyte; 1:1 Langmuir fit.
Excerpt: Dotted lines represent 1:1 Langmuir model fit to experimental data.

The target in assay [7] is plasminogen (human) (UniProt P00747). Nature of the assay: SPR (Biacore T200), antibody immobilised; FIG. 2.
Assay [8] has the same target. The assay can be described thus: SPR, multi-cycle; G11 immobilised on the chip, plasminogen injected as analyte; 1:1 Langmuir fit.

T1 sequence (P00747 20-580, chain 1 of 2): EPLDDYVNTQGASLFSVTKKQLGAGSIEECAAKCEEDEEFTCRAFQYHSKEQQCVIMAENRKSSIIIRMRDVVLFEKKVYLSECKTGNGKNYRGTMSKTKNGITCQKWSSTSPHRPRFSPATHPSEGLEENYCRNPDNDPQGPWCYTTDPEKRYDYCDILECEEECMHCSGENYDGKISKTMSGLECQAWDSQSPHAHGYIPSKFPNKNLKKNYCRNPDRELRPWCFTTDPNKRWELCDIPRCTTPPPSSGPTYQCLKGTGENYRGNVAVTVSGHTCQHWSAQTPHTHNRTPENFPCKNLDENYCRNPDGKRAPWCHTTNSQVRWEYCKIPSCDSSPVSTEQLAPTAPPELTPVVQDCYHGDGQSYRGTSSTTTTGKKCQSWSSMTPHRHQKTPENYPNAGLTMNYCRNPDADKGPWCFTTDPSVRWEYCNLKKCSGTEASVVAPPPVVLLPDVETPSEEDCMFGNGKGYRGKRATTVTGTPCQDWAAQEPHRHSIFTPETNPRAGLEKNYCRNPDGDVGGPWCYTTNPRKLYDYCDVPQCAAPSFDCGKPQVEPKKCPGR
T1 sequence (P00747 581-810, chain 2 of 2): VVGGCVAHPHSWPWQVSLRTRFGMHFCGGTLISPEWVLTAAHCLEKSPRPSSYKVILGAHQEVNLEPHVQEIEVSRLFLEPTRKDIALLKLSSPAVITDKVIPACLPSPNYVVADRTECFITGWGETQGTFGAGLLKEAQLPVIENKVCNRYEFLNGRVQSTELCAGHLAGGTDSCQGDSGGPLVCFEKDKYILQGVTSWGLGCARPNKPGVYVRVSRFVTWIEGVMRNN

B1: G05 antibody (scFv, V domains shown)
VH: AVTLDESGGGLQTPGRALSLVCKASGFTFSSYAMHWVRQAPGKGLEFVAGIDNIGSYTRYGAAVKGRVTISRDNGQSIVRLQLDNLRAEDTGTYYCAKSAYGGSCCGPAYIDAWGHGTEVIVSS
VL: QAALTQPSSVSANPGETVEITCSGGGRSSYYGWYQQKSPGSAPVTLIYDNTNRPSNIPSRFSGSKSGSTATLTITGVQGEDEAVYFCGSADSSTTGIFGAGTTLTVL
notes: Chicken antibody from an scFv library (VH and VL joined by a flexible linker); also called scFv fragment of G05
Consider B1, for which the percent reduction in plasminogen binding to GAS cells in assay [1] is 70%. The percent inhibition of plasminogen binding to GAS cells in assay [2] was 40%. In assay [3], the Kd turned out to be 7.9 nM, the koff was determined as 0.00071 s⁻¹ and the kon was 409000 M⁻¹ s⁻¹. Also, in assay [4], the IC50 of tPA-mediated plasminogen activation in solution (20 nM plasminogen, 20 mM EACA, 4 nM tPA, fluorogenic plasmin substrate) is 17.3 nM and the IC50 of tPA-mediated plasminogen activation on a preformed fibrin clot (100 nM plasminogen) was 292 nM. In assay [5], this molecule displayed a fold greater affinity for plasminogen compared to plasmin of 10 fold. In assay [6], this molecule registered a dissociation constant Kd of 0.76 nM, a koff of 0.00046 s⁻¹ and an on-rate (kon) of 640000 M⁻¹ s⁻¹.

B2: G11 antibody (scFv, part only; not given: linker between domains, part only)
scFv, part: QAALTQPSSVSANPGEIVEITCSGGGTYYGWYQQKSPGSAPVTMIYQNNQRPSNIPSRFSGSGSGPANTLTITGVRAEDEAVYYCGGYDSSAGYATFGAGTTLTVLAVTLDESGGGLQTPGGGLSLVCKASGFSISSYSMYWVRQAPGKGLEFVASISSDGSDTSYGSAVKGRATISRDNGQSTVRLQLNYLRAEDTGTYFCAKPTGGYYTWYETGSIDTWGHGTEVIVSS
In assay [4], B2 registered an IC50 of tPA-mediated plasminogen activation in solution (20 nM plasminogen, 20 mM EACA, 4 nM tPA, fluorogenic plasmin substrate) of 20 nM and an IC50 of tPA-mediated plasminogen activation on a preformed fibrin clot (100 nM plasminogen) of 47 nM. The fold greater affinity for plasminogen compared to plasmin in assay [7] was determined as 10 fold. In assay [8], this molecule yielded a Kd of 14 nM, a koff of 0.0018 s⁻¹ and a kon of 420000 M⁻¹ s⁻¹.
